Source: the Human Domainome abundance scans (Beltran et al. 2025)
± gives the uncertainty stated by the source.

B1: Double-stranded RNA-binding protein Staufen homolog 1, residues 183 to 249; numbered along this chain, O95793 (parent)
chain: KSEISQVFEIALKRNLPVNFEVARESGPPHMKNFVTKVSVGEFVGEGEGKSKKISKKNAAIAVLEEL

Variants of: B1
Assay: abundance fitness (aPCA) (normalised: wild type 0, dead -1); higher = more abundant; growth selection in yeast, the domain comes from the species named
Conditions: Homo sapiens

K50C and K50T are within error of each other in abundance fitness: -0.036 ± 0.07 for the first, -0.048 ± 0.05 for the second.

A23D and A23Y are within error of each other in abundance fitness: -0.108 ± 0.058 for the first, -0.086 ± 0.059 for the second.

A23K and A23T are within error of each other in abundance fitness: -0.052 ± 0.047 for the first, 0.033 ± 0.04 for the second.

V38S and V38N are within error of each other in abundance fitness: -0.46 ± 0.052 for the first, -0.445 ± 0.12 for the second.

First: V38G
Second: V38W
The abundance fitness of the first is higher: -0.557 ± 0.057 for the first, -0.988 ± 0.092 for the second.

V38D and L16N are within error of each other in abundance fitness: -0.57 ± 0.097 for the first, -0.716 ± 0.14 for the second.

First: L16T
Second: N58S
The abundance fitness of the first is lower: -0.594 ± 0.077 for the first, -0.341 ± 0.043 for the second.

N58L and N58K are within error of each other in abundance fitness: -0.195 ± 0.041 for the first, -0.149 ± 0.048 for the second.

First: N58M
Second: N58T
The abundance fitness of the first is higher: -0.055 ± 0.053 for the first, -0.604 ± 0.064 for the second.

I4D and I4C are within error of each other in abundance fitness: -0.388 ± 0.077 for the first, -0.417 ± 0.084 for the second.

First: S51K
Second: S51T
The abundance fitness of the first is lower: -0.344 ± 0.077 for the first, 0.056 ± 0.067 for the second.

K37Y and K37V are within error of each other in abundance fitness: -0.681 ± 0.27 for the first, -0.345 ± 0.082 for the second.

K37F and K37T are within error of each other in abundance fitness: -0.58 ± 0.28 for the first, -0.364 ± 0.099 for the second.

K37P and K1F are within error of each other in abundance fitness: -0.756 ± 0.12 for the first, -0.602 ± 0.28 for the second.

Going from E25A to E3S, the abundance fitness falls from -0.081 ± 0.055 to -0.208 ± 0.045.

First: E3H
Second: E3I
The abundance fitness of the first is lower: -0.219 ± 0.072 for the first, -0.001 ± 0.082 for the second.

Going from E3A to E3T, the abundance fitness falls from -0.049 ± 0.041 to -0.236 ± 0.056.

E48Q and E48A are within error of each other in abundance fitness: 0.054 ± 0.051 for the first, 0.001 ± 0.046 for the second.

Going from E48R to F20S, the abundance fitness falls from 0.104 ± 0.032 to -0.429 ± 0.048.

Going from E42A to E42F, the abundance fitness falls from 0.016 ± 0.056 to -0.355 ± 0.093.

G45I and G45H are within error of each other in abundance fitness: -0.487 ± 0.089 for the first, -0.619 ± 0.15 for the second.

Compared with G45L, G45C is higher in abundance fitness: -0.591 ± 0.047 for the first, -0.038 ± 0.082 for the second.

First: G45K
Second: K32H
The abundance fitness of the first is higher: -0.108 ± 0.051 for the first, -0.249 ± 0.088 for the second.

Compared with K32A, K32D is lower in abundance fitness: -0.037 ± 0.059 for the first, -0.332 ± 0.11 for the second.

Going from K32G to E9S, the abundance fitness falls from 0.001 ± 0.062 to -0.2 ± 0.04.

Compared with E9Q, E9F is lower in abundance fitness: -0.038 ± 0.051 for the first, -0.545 ± 0.066 for the second.

E9Y and E9M are within error of each other in abundance fitness: -0.338 ± 0.069 for the first, -0.317 ± 0.05 for the second.

First: K56Y
Second: P29D
The abundance fitness of the first is lower: -0.254 ± 0.092 for the first, -0.051 ± 0.097 for the second.

Compared with P29L, S2Y is lower in abundance fitness: -0.273 ± 0.038 for the first, -0.653 ± 0.087 for the second.

Compared with S2H, G41I is lower in abundance fitness: -0.546 ± 0.096 for the first, -1.41 ± 0.36 for the second.

Compared with T36S, T36L is lower in abundance fitness: -0.204 ± 0.041 for the first, -1.04 ± 0.066 for the second.

T36M and S55T are within error of each other in abundance fitness: -0.749 ± 0.073 for the first, -0.815 ± 0.062 for the second.

S55G and S55V are within error of each other in abundance fitness: -0.818 ± 0.048 for the first, -0.865 ± 0.053 for the second.

H30N and H30K are within error of each other in abundance fitness: 0.078 ± 0.064 for the first, 0.022 ± 0.052 for the second.

Going from H30V to M31R, the abundance fitness rises from -0.353 ± 0.045 to 0.025 ± 0.029.

Going from M31S to M31Y, the abundance fitness falls from 0.113 ± 0.038 to -0.089 ± 0.066.

Going from M31D to V35N, the abundance fitness falls from 0.199 ± 0.067 to -0.35 ± 0.11.

Compared with V35G, E66P is higher in abundance fitness: -0.497 ± 0.034 for the first, -0.235 ± 0.051 for the second.

First: E66G
Second: V44P
The abundance fitness of the first is higher: -0.118 ± 0.043 for the first, -0.789 ± 0.11 for the second.

Compared with V44K, V44D is lower in abundance fitness: -0.016 ± 0.053 for the first, -0.238 ± 0.073 for the second.

Compared with E46P, E46G is higher in abundance fitness: -0.939 ± 0.12 for the first, -0.449 ± 0.067 for the second.

V22M and V22I are within error of each other in abundance fitness: -0.081 ± 0.06 for the first, -0.005 ± 0.056 for the second.

Compared with V22W, V22D is higher in abundance fitness: -0.36 ± 0.061 for the first, -0.102 ± 0.069 for the second.

Compared with V22F, G47F is lower in abundance fitness: -0.165 ± 0.063 for the first, -0.945 ± 0.11 for the second.

G47C and G47W are within error of each other in abundance fitness: -0.976 ± 0.11 for the first, -1.01 ± 0.086 for the second.

G47Q and G47P are within error of each other in abundance fitness: -0.611 ± 0.065 for the first, -0.763 ± 0.097 for the second.

First: F34R
Second: F34M
The abundance fitness of the first is lower: -0.74 ± 0.042 for the first, -0.56 ± 0.05 for the second.

F34G and F34P are within error of each other in abundance fitness: -0.554 ± 0.042 for the first, -0.458 ± 0.058 for the second.

R24I and R24V are within error of each other in abundance fitness: -0.17 ± 0.09 for the first, -0.102 ± 0.036 for the second.

R24C and R24H are within error of each other in abundance fitness: -0.045 ± 0.074 for the first, -0.118 ± 0.073 for the second.

First: F8P
Second: V40H
The abundance fitness of the first is higher: -0.457 ± 0.056 for the first, -0.783 ± 0.14 for the second.

Compared with V40E, V40L is higher in abundance fitness: -0.555 ± 0.058 for the first, -0.199 ± 0.041 for the second.

V40T and V40N are within error of each other in abundance fitness: -0.541 ± 0.054 for the first, -0.617 ± 0.092 for the second.

Going from L64V to L64C, the abundance fitness rises from -0.5 ± 0.05 to -0.209 ± 0.13.

First: L64Q
Second: P28D
The abundance fitness of the first is lower: -0.448 ± 0.056 for the first, -0.167 ± 0.096 for the second.

P28G and I61M are within error of each other in abundance fitness: -0.111 ± 0.038 for the first, -0.095 ± 0.071 for the second.

First: I61P
Second: I61C
The abundance fitness of the first is lower: -0.556 ± 0.065 for the first, -0.126 ± 0.082 for the second.

First: E21P
Second: E21A
The abundance fitness of the first is lower: -1.05 ± 0.12 for the first, -0.059 ± 0.045 for the second.

Compared with Q6C, Q6F is lower in abundance fitness: -0.283 ± 0.033 for the first, -0.653 ± 0.038 for the second.

Q6L and E65Y are within error of each other in abundance fitness: -0.158 ± 0.027 for the first, -0.212 ± 0.082 for the second.

First: E65Q
Second: E65V
The abundance fitness of the first is higher: -0.016 ± 0.059 for the first, -0.584 ± 0.045 for the second.

First: E65M
Second: E65F
The abundance fitness of the first is higher: -0.336 ± 0.054 for the first, -0.737 ± 0.17 for the second.

First: A60C
Second: A60K
The abundance fitness of the first is higher: -0.067 ± 0.069 for the first, -0.714 ± 0.075 for the second.

Going from A60R to A60G, the abundance fitness rises from -0.882 ± 0.05 to -0.685 ± 0.051.

A60I and V18E are within error of each other in abundance fitness: -0.452 ± 0.083 for the first, -0.507 ± 0.086 for the second.

First: V18A
Second: P17V
The abundance fitness of the first is lower: -0.377 ± 0.054 for the first, -0.174 ± 0.051 for the second.

P17S and P17Q are within error of each other in abundance fitness: -0.008 ± 0.054 for the first, -0.037 ± 0.067 for the second.

First: P17E
Second: S39D
The abundance fitness of the first is higher: -0.09 ± 0.055 for the first, -0.542 ± 0.074 for the second.

Going from S39K to K53D, the abundance fitness falls from -0.05 ± 0.051 to -0.192 ± 0.066.

K53L and K53G are within error of each other in abundance fitness: -0.235 ± 0.048 for the first, -0.243 ± 0.036 for the second.

First: K53M
Second: N15V
The abundance fitness of the first is higher: -0.278 ± 0.073 for the first, -0.785 ± 0.069 for the second.

N15Q and N19M are within error of each other in abundance fitness: -0.144 ± 0.1 for the first, -0.048 ± 0.058 for the second.

Compared with N19F, V7D is lower in abundance fitness: -0.062 ± 0.089 for the first, -0.676 ± 0.075 for the second.

First: V7I
Second: V7T
The abundance fitness of the first is higher: -0.24 ± 0.043 for the first, -0.717 ± 0.075 for the second.

Going from V7H to V7W, the abundance fitness falls from -0.857 ± 0.14 to -1.13 ± 0.081.

Going from I10T to F43T, the abundance fitness rises from -0.542 ± 0.22 to -0.195 ± 0.058.

Compared with F43C, F43L is higher in abundance fitness: -0.262 ± 0.085 for the first, -0.126 ± 0.043 for the second.

F43G and G49Q are within error of each other in abundance fitness: -0.63 ± 0.042 for the first, -0.741 ± 0.069 for the second.

First: A62K
Second: A62P
The abundance fitness of the first is higher: 0.023 ± 0.068 for the first, -0.56 ± 0.075 for the second.

Compared with R14E, R14Q is higher in abundance fitness: -0.334 ± 0.052 for the first, -0.188 ± 0.064 for the second.

Going from R14M to R14P, the abundance fitness falls from 0.014 ± 0.066 to -0.594 ± 0.072.

Compared with R14T, L12G is higher in abundance fitness: -0.371 ± 0.073 for the first, -0.035 ± 0.067 for the second.

L12D and L12K are within error of each other in abundance fitness: -0.047 ± 0.17 for the first, -0.029 ± 0.22 for the second.

L12E gave an abundance fitness of -0.085 ± 0.076.
